According to paper PMC3433420, “Comprehensive Binary Interaction Mapping of SH2 Domains via Fluorescence Polarization Reveals Novel Functional Diversification of ErbB Receptors” (PLoS ONE, 2012):
Blank lines part the entries; values can stand above or below the binder they belong to. Non-standard residues stand in square brackets, D forms with d. No end group written: not given here. pY = N[C@@H](Cc1ccc(OP(=O)(O)O)cc1)C(=O)O; rhodamine = not defined here

How the values were obtained:
GRB2 SH2 domain = target: T1, GRB2 SH2 domain (human, UniProt P62993 60-152); test: fluorescence polarisation; saturation binding in solution: rhodamine peptide fixed at 10 nM, protein titrated 0.002-10 uM, 20 min at room temperature; assay buffer 20 mM HEPES, 100 mM KCl, 0.1% Tween-20, 5 mM DTT, pH 7.8; apparent KD; conditions: both partners purified
T1 construct: GRB2, human; source: bacterial expression, purified
T1 sequence (P62993 60-152): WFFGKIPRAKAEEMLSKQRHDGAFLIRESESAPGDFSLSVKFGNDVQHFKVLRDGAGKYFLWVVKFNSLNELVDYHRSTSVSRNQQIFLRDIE

SRC SH2 domain = target: T2, SRC SH2 domain (human, UniProt P12931-1 151-248); test: fluorescence polarisation; competition: rhodamine peptide 10 nM, protein at four times its KD, unlabeled competitor peptide in 11 serial 1:3 dilutions; Ki from IC50, one-site model; conditions: both partners purified
T2 construct: SRC, human; also called c-Src; source: bacterial expression, purified

Kd (GRB2 SH2 domain): 1460 nM
B1: ErbB4pY1208 phosphopeptide, rhodamine-labelled (peptide)
peptide: rhodamine-NEPL[pY]LNTFANTD
modifications: reading uncertain
notes: human ErbB4 around Tyr1208; the labelled form stood in the FP saturation assay behind Ki (exp FP); source: synthetic peptide

Ki (SRC SH2 domain): 2360 nM
B2: ErbB3pY1222 phosphopeptide, unlabeled competitor (peptide)
peptide: EELG[pY]EYMDVGSD
notes: human ErbB3 around Tyr1222; source: synthetic peptide
